B1: SBF1, O95248 (peptide)
chain: DRIQSCLSDA
B2: NECTIN1, Q15223 (peptide)
chain: SFISKKEWYV
B3: CRIPT, Q9P021 (peptide)
chain: DTKNYKQTSV
B4: REELD1, A0A1B0GV85 (peptide)
chain: PSVGSKKTVL

What was measured:
Assay in all cases: holdup assay
Design in all cases: key: below the threshold = too weak to quantify, mostly under pKd 3.1 to 4
Settings in all cases: plain residues with an end cap or a label only (N-terminal biotin on a linker: ado-ado)
AHNAK1, Q09666 = target: AHNAK1, Q09666
APBA3_1, O96018 = target: T1, APBA3_1, O96018
T1 sequence (O96018 389-490, limits assumed, looked up): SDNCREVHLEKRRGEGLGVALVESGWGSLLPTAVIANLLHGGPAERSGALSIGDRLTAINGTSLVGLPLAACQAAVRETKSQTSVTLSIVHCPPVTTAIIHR

DLG1_3, Q12959 = target: DLG1_3, Q12959
DLG3_3, Q92796 = target: T2, DLG3_3, Q92796
T2 sequence (Q92796 374-475, limits assumed, looked up): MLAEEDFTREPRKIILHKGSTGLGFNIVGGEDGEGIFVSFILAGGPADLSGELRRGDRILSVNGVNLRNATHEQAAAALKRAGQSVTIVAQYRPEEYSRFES

DLG4_3, P78352 = target: DLG4_3, P78352
DLG5_1, Q8TDM6 = target: DLG5_1, Q8TDM6
FRMPD3, Q5JV73 = target: FRMPD3, Q5JV73
GRASP, Q7Z6J2 = target: GRASP, Q7Z6J2
IL16_4, Q14005 = target: IL16_4, Q14005
Inadl_2, Q8NI35 = target: Inadl_2, Q8NI35
Inadl_6, Q8NI35 = target: Inadl_6, Q8NI35
Inadl_9, Q8NI35 = target: Inadl_9, Q8NI35
LIN7B, Q9HAP6 = target: T3, LIN7B, Q9HAP6
T3 sequence (Q9HAP6 88-185, limits assumed, looked up): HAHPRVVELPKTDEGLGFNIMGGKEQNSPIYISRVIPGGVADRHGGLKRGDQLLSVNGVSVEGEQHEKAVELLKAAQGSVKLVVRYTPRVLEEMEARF

LRRC7, Q96NW7 = target: T4, LRRC7, Q96NW7
T4 sequence (Q96NW7 1440-1537, limits assumed, looked up): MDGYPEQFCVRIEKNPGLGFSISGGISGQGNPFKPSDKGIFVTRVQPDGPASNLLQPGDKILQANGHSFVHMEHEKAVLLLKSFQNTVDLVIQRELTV

MAGI1_2, Q96QZ7 = target: MAGI1_2, Q96QZ7
MAST1, Q9Y2H9 = target: MAST1, Q9Y2H9
MPDZ_10, O75970 = target: T5, MPDZ_10, O75970
T5 sequence (O75970 1624-1722, limits assumed, looked up): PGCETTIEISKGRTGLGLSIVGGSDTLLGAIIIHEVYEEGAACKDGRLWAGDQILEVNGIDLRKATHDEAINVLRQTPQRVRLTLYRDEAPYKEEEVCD

MPP6, Q9NZW5 = target: T6, MPP6, Q9NZW5
T6 sequence (Q9NZW5 125-219, limits assumed, looked up): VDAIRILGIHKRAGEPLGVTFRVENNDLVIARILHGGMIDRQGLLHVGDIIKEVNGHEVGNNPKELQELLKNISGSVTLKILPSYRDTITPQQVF

NHERF2_2, Q15599 = target: NHERF2_2, Q15599
NHERF4_1, Q86UT5-2 = target: NHERF4_1, Q86UT5-2
NOS1, P29475 = target: NOS1, P29475
PARD3B_1, Q8TEW8 = target: T7, PARD3B_1, Q8TEW8
T7 sequence (Q8TEW8 196-299, limits assumed, looked up): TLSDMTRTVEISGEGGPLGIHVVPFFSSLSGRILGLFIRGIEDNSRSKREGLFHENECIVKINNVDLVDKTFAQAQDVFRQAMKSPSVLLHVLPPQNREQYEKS

PARD3_3, Q8TEW0 = target: PARD3_3, Q8TEW0
RADIL, Q96JH8 = target: T8, RADIL, Q96JH8
T8 sequence (Q96JH8 971-1071, limits assumed, looked up): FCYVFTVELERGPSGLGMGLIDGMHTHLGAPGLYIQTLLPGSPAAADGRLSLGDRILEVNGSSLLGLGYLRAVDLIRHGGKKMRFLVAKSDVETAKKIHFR

SNTG2, Q9NY99 = target: T9, SNTG2, Q9NY99
T9 sequence (Q9NY99 68-166, limits assumed, looked up): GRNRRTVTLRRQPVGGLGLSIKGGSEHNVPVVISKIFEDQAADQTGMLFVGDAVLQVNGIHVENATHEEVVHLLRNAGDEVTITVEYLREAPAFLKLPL

SNX27, Q96L92 = target: SNX27, Q96L92
SYNJ2BP, P57105 = target: T10, SYNJ2BP, P57105
T10 sequence (P57105 8-110, limits assumed, looked up): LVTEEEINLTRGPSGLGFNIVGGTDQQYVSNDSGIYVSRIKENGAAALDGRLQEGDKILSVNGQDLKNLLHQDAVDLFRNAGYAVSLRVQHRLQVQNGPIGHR

TJP2_1, Q9UDY2 = target: TJP2_1, Q9UDY2
Sequence of TJP2_1, Q9UDY2 (Q9UDY2 24-128): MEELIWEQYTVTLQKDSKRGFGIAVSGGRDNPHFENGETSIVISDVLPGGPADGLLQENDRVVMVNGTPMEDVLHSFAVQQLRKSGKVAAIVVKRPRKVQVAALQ

Sequence of NHERF4_1, Q86UT5-2 (Q86UT5 other isoform, or with tags, fused parts or gaps): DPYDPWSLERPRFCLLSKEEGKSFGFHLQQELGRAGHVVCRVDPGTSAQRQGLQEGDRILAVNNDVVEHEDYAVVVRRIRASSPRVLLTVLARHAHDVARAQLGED
Sequence of DLG4_3, P78352 (P78352 306-403): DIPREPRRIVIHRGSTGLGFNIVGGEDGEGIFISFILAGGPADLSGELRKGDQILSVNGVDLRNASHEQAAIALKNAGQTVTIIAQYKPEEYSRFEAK
Sequence of Inadl_9, Q8NI35 (Q8NI35 1530-1615): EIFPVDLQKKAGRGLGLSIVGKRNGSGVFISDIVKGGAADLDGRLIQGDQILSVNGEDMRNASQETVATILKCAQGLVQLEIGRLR
Sequence of MAST1, Q9Y2H9 (Q9Y2H9 962-1065): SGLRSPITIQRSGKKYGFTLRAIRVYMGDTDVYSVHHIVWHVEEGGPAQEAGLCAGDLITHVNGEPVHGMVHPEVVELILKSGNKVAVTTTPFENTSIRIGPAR
Sequence of MAGI1_2, Q96QZ7 (Q96QZ7 456-580): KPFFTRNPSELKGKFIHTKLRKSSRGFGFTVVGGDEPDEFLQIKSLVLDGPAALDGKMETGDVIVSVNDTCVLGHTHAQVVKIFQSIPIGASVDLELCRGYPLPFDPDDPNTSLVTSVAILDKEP
Sequence of Inadl_2, Q8NI35 (Q8NI35 238-335): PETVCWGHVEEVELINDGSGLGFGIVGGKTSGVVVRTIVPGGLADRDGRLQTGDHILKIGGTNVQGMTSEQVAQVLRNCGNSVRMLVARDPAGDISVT
Sequence of PARD3_3, Q8TEW0 (Q8TEW0 582-685): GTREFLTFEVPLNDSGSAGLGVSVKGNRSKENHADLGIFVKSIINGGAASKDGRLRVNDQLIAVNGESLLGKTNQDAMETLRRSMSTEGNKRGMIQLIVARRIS
Sequence of DLG1_3, Q12959 (Q12959 457-571): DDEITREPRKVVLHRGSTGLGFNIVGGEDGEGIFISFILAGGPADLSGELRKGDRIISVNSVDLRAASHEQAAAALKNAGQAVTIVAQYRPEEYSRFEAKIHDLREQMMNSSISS
Sequence of AHNAK1, Q09666 (Q09666 4-100): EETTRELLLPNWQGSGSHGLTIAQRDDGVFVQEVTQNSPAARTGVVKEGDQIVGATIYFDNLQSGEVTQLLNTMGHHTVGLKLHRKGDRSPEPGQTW
Sequence of DLG5_1, Q8TDM6 (Q8TDM6 617-713): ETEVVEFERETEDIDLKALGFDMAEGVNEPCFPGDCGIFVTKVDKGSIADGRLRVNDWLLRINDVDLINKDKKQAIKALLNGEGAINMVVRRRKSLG
Sequence of Inadl_6, Q8NI35 (Q8NI35 1058-1167): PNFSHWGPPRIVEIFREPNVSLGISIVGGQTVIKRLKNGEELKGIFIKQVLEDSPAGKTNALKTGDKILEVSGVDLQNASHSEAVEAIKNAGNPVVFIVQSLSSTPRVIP
Sequence of NHERF2_2, Q15599 (Q15599 142-238): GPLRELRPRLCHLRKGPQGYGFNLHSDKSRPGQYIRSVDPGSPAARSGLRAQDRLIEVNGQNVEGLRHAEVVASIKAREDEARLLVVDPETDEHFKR
Sequence of IL16_4, Q14005 (Q14005 1229-1329): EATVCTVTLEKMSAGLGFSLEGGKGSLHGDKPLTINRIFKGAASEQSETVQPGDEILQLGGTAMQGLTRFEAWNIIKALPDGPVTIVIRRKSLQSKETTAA
Sequence of NOS1, P29475 (P29475 9-101): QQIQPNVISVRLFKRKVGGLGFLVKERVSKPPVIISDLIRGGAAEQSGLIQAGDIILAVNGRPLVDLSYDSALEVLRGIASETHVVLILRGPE
Sequence of FRMPD3, Q5JV73 (Q5JV73 12-100): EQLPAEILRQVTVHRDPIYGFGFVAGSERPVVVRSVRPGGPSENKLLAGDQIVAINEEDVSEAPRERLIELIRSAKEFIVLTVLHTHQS
Sequence of GRASP, Q7Z6J2 (Q7Z6J2 96-193): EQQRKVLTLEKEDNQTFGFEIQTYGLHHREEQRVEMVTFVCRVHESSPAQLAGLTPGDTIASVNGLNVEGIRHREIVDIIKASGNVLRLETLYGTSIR

| Binder | pKd (AHNAK1, Q09666) | pKd (APBA3_1, O96018) | pKd (DLG1_3, Q12959) | pKd (DLG3_3, Q92796) | pKd (DLG4_3, P78352) | pKd (DLG5_1, Q8TDM6) | pKd (FRMPD3, Q5JV73) | pKd (GRASP, Q7Z6J2) | pKd (IL16_4, Q14005) | pKd (Inadl_2, Q8NI35) | pKd (Inadl_6, Q8NI35) | pKd (Inadl_9, Q8NI35) | pKd (LIN7B, Q9HAP6) | pKd (LRRC7, Q96NW7) | pKd (MAGI1_2, Q96QZ7) | pKd (MAST1, Q9Y2H9) | pKd (MPDZ_10, O75970) | pKd (MPP6, Q9NZW5) | pKd (NHERF2_2, Q15599) | pKd (NHERF4_1, Q86UT5-2) | also measured |
| --- | --- | --- | --- | --- | --- | --- | --- | --- | --- | --- | --- | --- | --- | --- | --- | --- | --- | --- | --- | --- | --- |
| B1 | below the threshold | below the threshold | below the threshold | below the threshold | below the threshold | below the threshold | below the threshold | below the threshold | below the threshold | below the threshold | below the threshold | below the threshold | 3.72 | below the threshold | below the threshold | 3.62 | below the threshold | below the threshold | below the threshold | below the threshold | pKd (NOS1, P29475): below the threshold; pKd (PARD3B_1, Q8TEW8): below the threshold; pKd (PARD3_3, Q8TEW0): below the threshold; pKd (RADIL, Q96JH8): below the threshold; pKd (SNTG2, Q9NY99): below the threshold; pKd (SNX27, Q96L92): below the threshold; pKd (SYNJ2BP, P57105): below the threshold; pKd (TJP2_1, Q9UDY2): below the threshold |
| B2 | below the threshold | below the threshold | below the threshold | below the threshold | below the threshold | below the threshold | 3.94 | below the threshold | below the threshold | 4.8 | below the threshold | 4.28 | 3.63 | below the threshold | 4.28 | 3.95 | below the threshold | 4.42 | below the threshold | below the threshold | pKd (NOS1, P29475): 3.6; pKd (PARD3B_1, Q8TEW8): 4.73; pKd (PARD3_3, Q8TEW0): 4.53; pKd (RADIL, Q96JH8): 4.94; pKd (SNTG2, Q9NY99): 3.49; pKd (SNX27, Q96L92): below the threshold; pKd (SYNJ2BP, P57105): below the threshold; pKd (TJP2_1, Q9UDY2): 4 |
| B3 | below the threshold | below the threshold | 5.26 | 5.16 | 5.39 | below the threshold | below the threshold | 4.11 | 3.71 | below the threshold | below the threshold | below the threshold | below the threshold | 3.92 | 4.32 | 4.82 | 3.98 | below the threshold | 3.73 | 3.53 | pKd (NOS1, P29475): 3.63; pKd (PARD3B_1, Q8TEW8): 3.48; pKd (PARD3_3, Q8TEW0): below the threshold; pKd (RADIL, Q96JH8): below the threshold; pKd (SNTG2, Q9NY99): 4.37; pKd (SNX27, Q96L92): 5.33; pKd (SYNJ2BP, P57105): 5.12; pKd (TJP2_1, Q9UDY2): below the threshold |
| B4 | below the threshold | below the threshold | below the threshold | below the threshold | below the threshold | below the threshold | below the threshold | 4.43 | 3.6 | below the threshold | below the threshold | below the threshold | below the threshold | below the threshold | 3.56 | 4.2 | below the threshold | below the threshold | 3.68 | 3.95 | pKd (NOS1, P29475): 3.64; pKd (PARD3B_1, Q8TEW8): 4.62; pKd (PARD3_3, Q8TEW0): below the threshold; pKd (RADIL, Q96JH8): below the threshold; pKd (SNTG2, Q9NY99): 3.66; pKd (SNX27, Q96L92): 3.71; pKd (SYNJ2BP, P57105): below the threshold; pKd (TJP2_1, Q9UDY2): 4.1 |

Source: article PMC9482650, “Quantitative fragmentomics allow affinity mapping of interactomes” (Nature Communications, 2022)
